The values that follow are results of earlier work, collected in article PMC9506339.

Broadly, the pKd is the negative decadic logarithm of the Kd, by convention in mol/L.

Data set [1] deals with vitamin D-binding protein (UniProt P02774).
The target is the same in data set [2]. This is another data set of the same source.

pKd: −log10 of the molar value. Read-outs that look alike come from different tables or passages of the source.

UniProt P02774, sequence (P02774 17-474): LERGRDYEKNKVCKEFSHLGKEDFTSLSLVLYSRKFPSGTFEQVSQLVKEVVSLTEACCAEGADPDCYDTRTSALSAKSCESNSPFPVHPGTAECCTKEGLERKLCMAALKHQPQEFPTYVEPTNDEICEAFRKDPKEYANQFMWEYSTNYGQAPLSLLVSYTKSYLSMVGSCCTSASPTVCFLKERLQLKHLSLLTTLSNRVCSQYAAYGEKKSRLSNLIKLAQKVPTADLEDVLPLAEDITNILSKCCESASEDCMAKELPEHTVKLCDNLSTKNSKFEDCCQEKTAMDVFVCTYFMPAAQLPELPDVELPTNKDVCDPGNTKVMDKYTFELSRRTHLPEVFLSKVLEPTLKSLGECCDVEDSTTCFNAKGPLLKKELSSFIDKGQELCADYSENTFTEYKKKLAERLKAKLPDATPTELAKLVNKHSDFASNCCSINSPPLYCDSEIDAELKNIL

Regarding cubilin (from UniProt O60494), the pKd in data set [1] is 6.96.

As for megalin (from UniProt P98164), the pKd in data set [2] was 6.92.
